From patent CN115505045A (MABWELL SHANGHAI BIOSCIENCE CO LTD, dated 2022)

T1: LAG-3-OFP(NCBI登录号:NP_002277.4) on HEK293细胞 (human, UniProt P18627 23-525)
T1 construct: whole, on cells; also called HEK-293-LAG3-OFP; HEK293-LAG-3
T1 sequence (looked up): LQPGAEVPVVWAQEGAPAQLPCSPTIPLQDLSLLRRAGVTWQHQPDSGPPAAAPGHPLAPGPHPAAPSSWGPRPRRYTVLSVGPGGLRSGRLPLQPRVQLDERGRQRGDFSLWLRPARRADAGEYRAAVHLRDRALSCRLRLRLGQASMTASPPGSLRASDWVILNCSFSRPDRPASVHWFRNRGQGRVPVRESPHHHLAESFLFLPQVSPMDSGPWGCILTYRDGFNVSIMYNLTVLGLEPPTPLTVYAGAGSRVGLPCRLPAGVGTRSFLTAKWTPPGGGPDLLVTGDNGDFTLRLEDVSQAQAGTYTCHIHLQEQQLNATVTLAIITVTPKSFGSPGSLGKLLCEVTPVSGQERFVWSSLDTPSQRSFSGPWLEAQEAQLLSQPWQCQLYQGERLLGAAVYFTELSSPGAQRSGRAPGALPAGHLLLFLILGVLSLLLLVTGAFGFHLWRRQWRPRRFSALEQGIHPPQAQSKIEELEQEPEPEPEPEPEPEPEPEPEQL

T2: 鼠重组蛋白LAG-3(Cat:53069-M08H，北京义翘神州科技股份有限公司) (mouse, UniProt Q61790 24-442)
T2 construct: also called 小鼠LAG-3; 鼠LAG-3
T2 sequence (looked up): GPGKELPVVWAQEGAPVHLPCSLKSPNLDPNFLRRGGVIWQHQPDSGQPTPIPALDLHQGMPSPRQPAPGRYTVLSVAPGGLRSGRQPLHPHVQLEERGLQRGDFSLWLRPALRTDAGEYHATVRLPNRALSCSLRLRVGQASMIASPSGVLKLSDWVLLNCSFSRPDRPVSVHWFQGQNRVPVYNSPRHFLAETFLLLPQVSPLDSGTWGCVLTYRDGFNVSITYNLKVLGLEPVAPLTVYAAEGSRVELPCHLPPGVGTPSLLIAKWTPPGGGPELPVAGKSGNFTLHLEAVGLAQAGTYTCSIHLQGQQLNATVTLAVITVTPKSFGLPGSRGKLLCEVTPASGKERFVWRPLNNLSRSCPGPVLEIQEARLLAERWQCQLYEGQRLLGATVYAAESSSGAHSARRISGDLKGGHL

T3: 人LAG-3胞外区融合蛋白(义翘神州，Cat:16498-H08H) (human, UniProt P18627 23-450)
T3 construct: extracellular domain; also called 人重组蛋白LAG-3; 人LAG-3重组蛋白
T3 sequence (looked up): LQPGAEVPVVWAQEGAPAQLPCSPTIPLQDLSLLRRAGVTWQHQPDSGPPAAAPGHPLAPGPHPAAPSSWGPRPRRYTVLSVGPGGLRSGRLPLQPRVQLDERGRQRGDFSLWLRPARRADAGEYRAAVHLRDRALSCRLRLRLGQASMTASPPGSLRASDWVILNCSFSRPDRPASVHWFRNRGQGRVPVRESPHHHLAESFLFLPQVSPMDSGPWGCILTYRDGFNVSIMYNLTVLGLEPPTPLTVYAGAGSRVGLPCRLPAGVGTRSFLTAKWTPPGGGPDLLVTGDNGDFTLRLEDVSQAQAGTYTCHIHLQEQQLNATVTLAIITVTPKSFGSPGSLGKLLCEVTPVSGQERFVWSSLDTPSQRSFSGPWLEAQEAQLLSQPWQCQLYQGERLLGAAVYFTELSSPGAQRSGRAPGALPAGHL

T4: LAG-3(NCBI登录号:NP_002277.4)全长, HEK293细胞表面 (human, UniProt P18627 23-525)
T4 construct: whole, on cells; also called HEK293-LAG-3; 细胞表面LAG-3
T4 sequence (looked up): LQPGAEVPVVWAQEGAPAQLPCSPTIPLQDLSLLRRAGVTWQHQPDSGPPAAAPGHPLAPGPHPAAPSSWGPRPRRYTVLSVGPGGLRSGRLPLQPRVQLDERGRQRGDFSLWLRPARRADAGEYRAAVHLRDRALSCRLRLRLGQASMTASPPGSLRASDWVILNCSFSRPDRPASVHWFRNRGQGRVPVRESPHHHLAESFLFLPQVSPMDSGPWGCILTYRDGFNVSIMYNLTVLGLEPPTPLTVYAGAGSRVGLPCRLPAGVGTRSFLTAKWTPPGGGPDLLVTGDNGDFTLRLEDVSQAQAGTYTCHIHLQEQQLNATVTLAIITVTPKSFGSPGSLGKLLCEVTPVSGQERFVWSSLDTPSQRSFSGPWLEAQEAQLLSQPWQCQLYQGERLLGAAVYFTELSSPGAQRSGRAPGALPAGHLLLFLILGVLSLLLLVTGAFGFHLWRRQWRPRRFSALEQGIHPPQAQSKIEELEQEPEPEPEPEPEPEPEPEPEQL


Columns and labels:
[1] = target: T5, 人PD-L1 on CHO-PD-L1-CD3L细胞 (human, UniProt Q9NZQ7 19-290); assay: flow cytometry, double-positive cells (CFSE-labelled CHO-PD-L1-CD3L with HEK-293-LAG3-OFP)
T5 construct: whole, on cells; also called 高表达人PD-L1的CHO细胞
T5 sequence (Q9NZQ7 19-290): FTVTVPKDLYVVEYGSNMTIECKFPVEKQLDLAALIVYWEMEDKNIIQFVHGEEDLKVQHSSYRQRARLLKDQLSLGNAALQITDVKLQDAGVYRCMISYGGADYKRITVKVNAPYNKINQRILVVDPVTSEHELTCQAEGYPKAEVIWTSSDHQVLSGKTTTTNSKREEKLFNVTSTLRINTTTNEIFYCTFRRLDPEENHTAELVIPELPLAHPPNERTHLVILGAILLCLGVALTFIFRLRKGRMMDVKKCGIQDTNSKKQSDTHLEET

[2] = target: T1, LAG-3-OFP(NCBI登录号:NP_002277.4) on …; assay: as above
[3] = target: T6, 鼠PD-L1(Cat:50010-M08H，北京义翘神州科技股份有限公司) (mouse, UniProt Q9EP73 19-238); assay: ELISA, antigen coated at 1 μg/mL
T6 construct: also called 小鼠PD-L1
T6 sequence (Q9EP73 19-238 limits assumed, stated change not applied): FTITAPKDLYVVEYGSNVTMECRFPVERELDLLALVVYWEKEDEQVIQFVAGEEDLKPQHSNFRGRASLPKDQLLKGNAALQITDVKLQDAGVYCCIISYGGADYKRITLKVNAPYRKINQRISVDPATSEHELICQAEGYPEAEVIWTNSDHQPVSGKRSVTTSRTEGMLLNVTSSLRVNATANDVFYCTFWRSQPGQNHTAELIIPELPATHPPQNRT

[4] = target: T2, 鼠重组蛋白LAG-3(Cat:53069-M08H，北京义翘神州科技股份有限公司 …; assay: ELISA, antigen coated at 1 μg/mL
[5] = target: T3, 人LAG-3胞外区融合蛋白(义翘神州，Cat:16498-H08H); assay: SPR (Reichert 4SPR), antibody captured by anti-human Fc, antigen in flow
肿瘤细胞MBA-MD-231细胞表面的PD-L1 = target: T7, 肿瘤细胞MBA-MD-231细胞表面的PD-L1 (UniProt Q9NZQ7 19-290, limits assumed); assay: flow cytometry on MBA-MD-231 tumour cells
T7 construct: whole, on cells; also called 细胞表面PD-L1
T7 sequence (Q9NZQ7 19-290 limits assumed): as the sequence (Q9NZQ7 19-290) above

[6] = target: T4, LAG-3(NCBI登录号:NP_002277.4)全长, HEK293细胞表面; assay: flow cytometry on HEK293 cells transfected with full-length LAG-3

Row | binding result [1] | binding result [2] | binding result [3] | binding result [4] | binding result [5] | binding result (肿瘤细胞MBA-MD-231细胞表面的PD-L1) | binding result [6] | Binder
1 | binds | binds | no binding (tested: 1μg/mL) | no binding (tested: 1μg/mL) | binds | binds | binds | hz7F10-hzB6 (bispecific antibody, human IgG1, kappa, L234A L235A, Expressed transiently in HEK293 cells; also called 抗人LAG-3/PD-L1双特异抗体; LAG-3/PD-L1双特异抗体) heavy: not shown light: DIQMTQSPSSLSASVGDRVTITCKASENVGTYVSWFQQKPGKAPKLLIYGASNRYTGVPSRFSGSGSGTDFTLTISSLQPEDFATYYCGQSYSYPYTFGQGTKLEIKRTVAAPSVFIFPPSDEQLKSGTASVVCLLNNFYPREAKVQWKVDNALQSGNSQESVTEQDSKDSTYSLSSTLTLSKADYEKHKVYACEVTHQGLSSPVTKSFNRGEC
2 | – | – | no binding (tested: 1μg/mL) | no binding (tested: 1μg/mL) | binds | binds | binds | hz7F10-hzF2 (bispecific antibody, human IgG1, kappa, L234A L235A, Expressed transiently in HEK293 cells; also called 抗人LAG-3/PD-L1双特异抗体; LAG-3/PD-L1双特异抗体) heavy: not shown light: DIQMTQSPSSLSASVGDRVTITCKASENVGTYVSWFQQKPGKAPKLLIYGASNRYTGVPSRFSGSGSGTDFTLTISSLQPEDFATYYCGQSYSYPYTFGQGTKLEIKRTVAAPSVFIFPPSDEQLKSGTASVVCLLNNFYPREAKVQWKVDNALQSGNSQESVTEQDSKDSTYSLSSTLTLSKADYEKHKVYACEVTHQGLSSPVTKSFNRGEC
3 | – | – | – | – | binds | – | binds | 人源化抗体hz7F10 (antibody, human IgG1, kappa, L234A L235A, V domains shown, Humanised from mouse antibody 7F10; also called 裸抗体hz7F10; 抗LAG-3抗体hz7F10) VH: EVQLVQSGAEVKKPGASVKVSCKASGVNIKDDYMHWVRQAPGQGLEWIGRIDPEDVETKYDPKFQGRVTITADTSTSTAYMELSSLRSEDTAVYYCARSFYSNYVNYFDQWGQGTLVTVSS VL: DIQMTQSPSSLSASVGDRVTITCKASENVGTYVSWFQQKPGKAPKLLIYGASNRYTGVPSRFSGSGSGTDFTLTISSLQPEDFATYYCGQSYSYPYTFGQGTKLEIKR
4 | – | – | – | no binding (tested: 1μg/mL) | – | – | – | 对照抗体BMS-986016 (antibody, human IgG4 S228P, kappa, V domains shown) VH: QVQLQQWGAGLLKPSETLSLTCAVYGGSFSDYYWNWIRQPPGKGLEWIGEINHRGSTNSNPSLKSRVTLSLDTSKNQFSLKLRSVTAADTAVYYCAFGYSDYEYNWFDPWGQGTLVTVSS VL: EIVLTQSPATLSLSPGERATLSCRASQSISSYLAWYQQKPGQAPRLLIYDASNRATGIPARFSGSGSGTDFTLTISSLEPEDFAVYYCQQRSNWPLTFGQGTNLEIKR
